T1: human natriuretic polypeptide receptor hNPR1 (the membrane-bound guanylate cyclase receptor of BNP) (human, UniProt P16066 33-1061)
T1 sequence (looked up): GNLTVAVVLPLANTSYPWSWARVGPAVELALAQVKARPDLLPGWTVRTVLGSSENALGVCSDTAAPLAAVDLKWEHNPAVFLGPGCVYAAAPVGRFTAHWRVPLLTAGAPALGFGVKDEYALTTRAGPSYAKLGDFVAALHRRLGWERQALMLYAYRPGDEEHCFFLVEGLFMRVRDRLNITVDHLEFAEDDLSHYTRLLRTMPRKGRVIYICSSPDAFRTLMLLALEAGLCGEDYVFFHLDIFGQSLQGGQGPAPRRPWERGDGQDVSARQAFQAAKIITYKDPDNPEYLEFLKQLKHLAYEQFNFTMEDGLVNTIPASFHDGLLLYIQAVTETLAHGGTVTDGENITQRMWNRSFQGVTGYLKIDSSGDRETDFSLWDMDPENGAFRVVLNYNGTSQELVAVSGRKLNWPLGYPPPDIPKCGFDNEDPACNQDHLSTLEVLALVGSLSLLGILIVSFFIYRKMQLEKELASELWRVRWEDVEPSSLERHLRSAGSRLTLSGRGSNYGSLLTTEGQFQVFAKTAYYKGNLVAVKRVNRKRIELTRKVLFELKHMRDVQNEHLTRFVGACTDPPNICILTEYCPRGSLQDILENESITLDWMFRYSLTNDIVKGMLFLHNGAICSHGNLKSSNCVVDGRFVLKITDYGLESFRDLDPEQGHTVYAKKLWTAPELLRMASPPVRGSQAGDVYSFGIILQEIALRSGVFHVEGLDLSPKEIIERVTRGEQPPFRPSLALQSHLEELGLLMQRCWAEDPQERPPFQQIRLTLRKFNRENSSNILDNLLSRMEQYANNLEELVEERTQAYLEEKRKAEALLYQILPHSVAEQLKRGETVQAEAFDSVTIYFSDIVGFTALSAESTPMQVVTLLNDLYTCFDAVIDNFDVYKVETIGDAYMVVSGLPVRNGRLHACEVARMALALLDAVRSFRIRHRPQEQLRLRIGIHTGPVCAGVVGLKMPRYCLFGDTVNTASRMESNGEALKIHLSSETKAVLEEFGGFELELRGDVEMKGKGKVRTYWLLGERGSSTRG

B1: Compound 5, hBNP(1-30)-(SEQ ID No:2)10-A (PAS attached to carboxy group of the C-terminal arginine 30) (ligand)
chain: SPKMVQGSGCFGRKMDRISSSSGLGCKVLRASPAAPAPASPAAPAPSAPAASPAAPAPASPAAPAPSAPAASPAAPAPASPAAPAPSAPAASPAAPAPASPAAPAPSAPAASPAAPAPASPAAPAPSAPAASPAAPAPASPAAPAPSAPAASPAAPAPASPAAPAPSAPAASPAAPAPASPAAPAPSAPAASPAAPAPASPAAPAPSAPAASPAAPAPASPAAPAPSAPAA
B2: Compound 2, P-(SEQ ID No:2)10-A-hBNP(3-32) (PAS attached to the alpha amino group of the N-terminal lysine 3) (ligand)
chain: PASPAAPAPASPAAPAPSAPAASPAAPAPASPAAPAPSAPAASPAAPAPASPAAPAPSAPAASPAAPAPASPAAPAPSAPAASPAAPAPASPAAPAPSAPAASPAAPAPASPAAPAPSAPAASPAAPAPASPAAPAPSAPAASPAAPAPASPAAPAPSAPAASPAAPAPASPAAPAPSAPAASPAAPAPASPAAPAPSAPAAKMVQGSGCFGRKMDRISSSSGLGCKVLRRH
B3: Compound 3, P-(SEQ ID No:2)10-A-hBNP(6-32) (PAS attached to N-terminus of glutamine 6) (ligand)
chain: PASPAAPAPASPAAPAPSAPAASPAAPAPASPAAPAPSAPAASPAAPAPASPAAPAPSAPAASPAAPAPASPAAPAPSAPAASPAAPAPASPAAPAPSAPAASPAAPAPASPAAPAPSAPAASPAAPAPASPAAPAPSAPAASPAAPAPASPAAPAPSAPAASPAAPAPASPAAPAPSAPAASPAAPAPASPAAPAPSAPAAQGSGCFGRKMDRISSSSGLGCKVLRRH

Tests used:
[1] = molecular target: human natriuretic polypeptide receptor hNPR1 (the membrane-bound guanylate cyclase receptor of BNP) (human) (UniProt P16066); assay: cell-based or functional assay
[2] = molecular target: T1, human natriuretic polypeptide receptor …; assay: cell-based or functional assay

Row | Log dose ratio from hBNP(1-32) (NPR-1 cGMP assay, HEK293T/17) [1] | Maximum % control (cGMP HTRF, % response to BNP1-32 10 µM) [1] | PEC50 (n) (cGMP HTRF, transiently transfected HEK293T/17 cells) [1] | Potency fold loss from hBNP(1-32) (NPR-1 cGMP assay, HEK293T/17) [1] | fold reduction in potency relative to PAS200 (NPR-1 cGMP assay, HEK293T/17) [1] | pEC50 [1] | log EC50 (cGMP, TR-FRET, % Activation, CHO-K1 cells transfected with hNPR1) [2] | log dose ratio from hBNP(1-32) (hNPR1 cGMP agonist assay) [2] | potency fold loss from hBNP(1-32) (hNPR1 cGMP agonist assay) [2] | Molecule
1 | 1.58 | 97.3% | 6.49 | 38.2 fold | 5.2 fold | 6.49 | – | – | – | PAS400-hBNP(1-32) (ligand)
2 | 1.5 | 97.4% | 6.57 | 31.8 fold | – | 6.57 | – | – | – | PAS600-hBNP(1-32) (ligand)
3 | 1.54 | 89.1% | 6.53 | 34.3 fold | – | 6.53 | – | – | – | PAS800-hBNP(1-32) (ligand)
4 | – | – | – | – | – | – | -7.28 | -1.95 | 89 fold | B1
5 | – | – | – | – | – | – | -7.84 | -1.39 | 25 fold | B2
6 | – | – | – | – | – | – | -7.31 | -1.92 | 83 fold | B3

Reference: patent US20240199716A1 (ANTLIA BIOSCIENCE, published 2024)
